According to article PMC9440244, “Structures and implications of the nuclease domain of human parvovirus B19 NS1 protein”:

Biological target: NS1_Nuc WT (nuclease domain of NS1) (human parvovirus B19 (variant …, UniProt A0A097C0M3 2-176))
Assay: EMSA; 1 mM EDTA
Conditions: protein: recombinant, tags: His-SUMO removed by ULP1

B1: 67-ori-top (ssDNA)
DNA: AAAATTTAAAAGAAGACACCAAATCAGATGCCGCCGGTCGCCGCCGGTAGGCGGGACTTCCGGTACA
Kd (label: 5'-FAM, single strand): 12.3 µM

B2: 67-ori-top/40-ori-bot (mixed)
DNA 1: B1 DNA
DNA 2: TGTACCGGAAGTCCCGCCTACCGGCGGCGACCGGCGGCAT
Kd (label: 5'-FAM on 67-ori-top, partial duplex over NSBE1-NSBE4, top strand single-stranded elsewhere): ~1 µM
